From patent WO2013005649A1
pKd: −log10 of the molar value.

The substances below were run against human CCR6 N-terminal extracellular domain Fc fusion protein NthCCR6-IgG4Fc (human) (assay: SPR, Biacore T100; NthCCR6-IgG4Fc captured on anti-human IgG CM5 chip, antibody injected).
Sequence of human CCR6 N-terminal extracellular domain Fc fusion protein NthCCR6-IgG4Fc (human) (chain, as listed by the source limits assumed): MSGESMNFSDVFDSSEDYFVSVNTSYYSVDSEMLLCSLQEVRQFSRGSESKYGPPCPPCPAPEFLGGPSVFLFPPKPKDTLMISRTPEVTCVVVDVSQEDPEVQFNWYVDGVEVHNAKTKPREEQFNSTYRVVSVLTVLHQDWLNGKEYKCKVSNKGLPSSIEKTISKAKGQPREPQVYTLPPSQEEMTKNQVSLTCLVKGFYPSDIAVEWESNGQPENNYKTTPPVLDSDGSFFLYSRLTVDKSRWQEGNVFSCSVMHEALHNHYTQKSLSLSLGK

pKd | Substance
7.15 | human CCR6 monoclonal antibody (clone 53103) (R&D Systems)
7.70 | commercially available anti-human CCR6 monoclonal antibody 11A9 (BD Pharmingen)
8.30 | commercially available anti-human CCR6 monoclonal antibody R6H1 (eBioscience)
